Data taken from the supplement of paper PMC10567573.

B1: GLTSCR2 (parent)
chain: LARRRRRRQARREAEADKPRRLGR

Variants of: B1
Assay: protein stability index of a GFP-peptide fusion (GPS, HEK-293T) (PSI 1-6); higher = more stable
Conditions: c terminus: a fixed tail appended
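Further: lentivirally expressed fusions sorted by FACS into six bins by GFP to DsRed ratio, PSI derived from sequencing read proportions per bin multiplied by bin number.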

Protein stability index of substitutions, site by site:
L1: N 4.89 | P 5.18 | Q 4.51 | R 5.14 | S 5.66 | T 5.33 | V 4.98 | W 4.58 | Y 4.28
A2: C 4.49 | D 4.41 | E 4.71 | F 3.4 | G 4.78 | H 4.76 | I 4.62 | K 4.42 | L 3.84 | M 4.19 | N 4.9 | P 4.84 | Q 5.01 | R 5.33 | S 4.83 | T 4.28 | V 3.51 | W 3.61 | Y 4.32
R3: A 5.01 | C 4.74 | D 4.56 | E 5.08 | F 4.34 | G 5.02 | H 4.3 | I 4.36 | K 5.03 | L 4.3 | M 4.41 | N 4.69 | P 5.54 | Q 4.99 | S 4.91 | T 4.84 | V 4.35 | W 4.4 | Y 3.84
R4: A 4.39 | C 4.34 | D 4.64 | E 5.25 | F 3.75 | G 4.3 | H 4.35 | I 4.46 | K 3.13 | L 4.59 | M 4.57 | N 4.63 | P 4.92 | Q 4.18 | S 4.17 | T 4.67 | V 3.97 | W 3.11 | Y 4.16
R5: A 4.69 | C 4.21 | D 4.52 | E 5.13 | F 4.76 | G 4.36 | H 4.18 | I 3.79 | K 4.54 | L 3.81 | M 4.36 | N 5.32 | P 5.1 | Q 4.33 | S 4.42 | T 4.15 | V 4.54 | W 4.12 | Y 4.45
R6: A 5.21 | C 4.5 | D 4.96 | E 4.03 | F 3.93 | G 4.55 | H 4.28 | I 3.98 | K 4.79 | L 4.6 | M 4.27 | N 5.07 | P 4.57 | Q 5.03 | S 4.86 | T 4.69 | V 3.6 | W 4.74 | Y 4.13
R7: A 4.18 | C 4.83 | D 4.88 | E 4.93 | F 4.28 | G 4.71 | H 4.73 | I 4.41 | K 5.11 | L 4.76 | M 5.22 | N 4.83 | Q 4.19 | S 4.66 | T 4.76 | V 4.6 | W 4.63 | Y 4.64
R8: A 4.98 | C 3.8 | D 4.83 | E 4.83 | F 4.64 | G 4.25 | H 4.75 | I 4.3 | K 4.3 | L 3.48 | M 4.98 | N 4.48 | P 4.44 | Q 4.23 | S 5.01 | T 4.21 | V 4.18 | W 4.48 | Y 4.15
Q9: A 4.17 | C 4.4 | D 4.44 | E 4.38 | F 4.27 | G 4.46 | H 4.73 | I 4.75 | K 4.33 | L 4.66 | M 3.79 | N 4.47 | P 4.85 | R 4.95 | S 4.57 | T 5.12 | V 4.22 | W 3.71 | Y 4.33
A10: C 5.01 | D 3.92 | E 4.55 | F 4.47 | G 4.25 | H 5.1 | I 4.55 | K 4.02 | L 4.38 | M 5.21 | N 4.6 | P 5.19 | Q 4.95 | R 4.95 | S 4.66 | T 4.21 | V 4.57 | W 4.73 | Y 4.9
R11: A 4.53 | C 4.64 | E 4.87 | F 4.09 | G 3.7 | H 4.74 | I 4.8 | K 4.52 | L 5.4 | M 4.47 | N 3.94 | P 4.62 | Q 4.26 | S 4.74 | T 5.06 | V 4.91 | W 4.53 | Y 4.95
R12: A 4.71 | C 4.31 | D 4.73 | E 4.29 | F 4.17 | G 4.45 | H 4.74 | I 4.72 | K 4.55 | L 3.76 | M 4.87 | N 4.11 | P 4.6 | T 4.98 | V 5.34 | W 4.34 | Y 4.51
E13: A 4.51 | C 5.01 | D 4.61 | F 4.04 | G 5.01 | H 4.13 | I 4.73 | K 4.37 | L 4.46 | M 3.72 | N 4.59 | P 4.36 | Q 4.88 | R 4.4 | S 4.26 | T 4.83 | V 4.35 | W 4.51 | Y 4.4
A14: D 4.49 | E 5.11 | F 4.11 | G 3.91 | H 4.34 | I 4.28 | K 4.61 | L 4.33 | M 4.34 | N 4.44 | P 4.97 | Q 4.8 | R 4.52 | S 4.7 | T 4.97 | V 4.58 | W 4.45 | Y 4.6
E15: A 4.78 | C 4.68 | D 4.55 | F 4.36 | G 4.43 | H 4.55 | I 4.63 | K 3.6 | L 4.16 | M 4.72 | N 5.4 | P 4.44 | Q 4.52 | R 3.99 | S 4.12 | T 4.22 | V 4.64 | W 3.87 | Y 4.21
A16: C 4.48 | D 4.82 | E 4.8 | F 4.4 | G 4.09 | H 5.25 | I 4.22 | K 4.32 | L 3.29 | M 4.97 | N 4.91 | P 4.61 | Q 4.89 | R 3.96 | S 3.77 | T 4.76 | V 4.69 | W 3.73 | Y 4.61
D17: A 4.3 | C 4.07 | E 5.31 | F 4.73 | G 4.24 | H 4.81 | I 3.98 | K 4.99 | L 4.52 | M 4.49 | N 4.32 | P 4.33 | Q 4.53 | R 4.82 | T 4.66 | V 3.99 | W 4.33 | Y 4.88
K18: A 4.89 | C 5.07 | D 4.78 | E 5.03 | F 5.1 | G 4.91 | H 4.98 | I 4.34 | L 5.11 | M 5.14 | N 4.96 | P 5.41 | Q 4.97 | R 5.02 | S 4.74 | T 4.29 | V 5.01 | W 3.88 | Y 4.85
P19: A 3.92 | C 4.29 | D 4.91 | E 4.64 | G 4.57 | H 4.09 | I 3.81 | K 4.61
